Results as given in FireProtDB (doi:10.1074/jbc.m704364200).

B1: Prolactin, P01236 (parent)
chain: MNIKGSPWKGSLLLLLVSNLLLCQSVAPLPICPGGAARCQVTLRDLFDRAVVLSHYIHNLSSEMFSEFDKRYTHGRGFITKAINSCHTSSLATPEDKEQAQQMNQKDFLSLIVSILRSWNEPLYHLVTEVRGMQEAPEAILSKAVEIEEQTKRLLEGMELIVSQVHPETKENEIYPVWSGLPSLQMADEESRLSAYYNLLHCLRRDSHKIDNYLKLLKCRIIHNNNC

Variants of: B1
Conditions: Homo sapiens; pH 7.4; Thermal; CD; NaH2PO4 100mM; structure 1RW5; whole UniProt chain shown

| Variant | Tm | change of melting temperature, mutant - wild type (higher = more stable) | unfolding enthalpy (calorimetric) |
| --- | --- | --- | --- |
| G157Y | 96.8 °C | 15.7 °C |  |
| G157V | 101 °C | 19.7 °C |  |
| G157P | 70.8 °C | -10.3 °C | 50.1 kcal/mol |
| G157L | 96.8 °C | 15.7 °C |  |
| G157R | 79 °C | -2.2 °C | 55.9 kcal/mol |
| G157N | 89.8 °C | 8.7 °C |  |
| G157F | 93.8 °C | 12.7 °C |  |
| G157D | 84.2 °C | 3.1 °C | 58 kcal/mol |
